Experimental data as given in the RNAGym collection of RNA variant scans (doi:10.1073/pnas.2313332121).

B1: TPR t1 (parent)
chain: GACCAAUCUGCCCUCAGAGCUCGAGAACAUCUUCGGAUGCAGAGGAGGCAGGCUUCGGUGGCGCGAUAGCGCCAACGUCCUCAACCUCCAAUGCAUCCCACCACAUGAUGAUGCCUGAAGAGCCUUGGUUUUUUG

Variants of: B1
Experiment: polymerase ribozyme fitness, log enrichment relative to wild type (log ratio); higher = more active; in vitro selection for triplet polymerase activity
Procedure, shortened: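 PCR was used to build mutant libraries for each subunit of a heterodimeric triplet polymerase ribozyme, which were then transcribed. A single in vitro selection round, in triplicate, used a frozen incubation at −7 °C and recovered extended constructs by gel excision, streptavidin beads and RT-PCR. Fitness is the logarithm of genotype enrichment relative to wild-type enrichment, averaged over replicates with inverse-variance weights. The logarithm is base 2, and after Illumina sequencing only genotypes with ≥10 input reads and ≥1 read per output were kept.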

Going from G42U A43C G69C A74U U87G C89G to G42U A43G C123A, the “polymerase ribozyme fitness (log ratio)” value rises from -5.66 to -1.31.

Going from G42U A43G G45U U55G C72A to G42U A46C C53A U92A A95C C104G U112A, the “polymerase ribozyme fitness (log ratio)” value falls from -0.969 to -7.25.

Compared with G42U A50C, G42U A50U G69U A105G is lower in “polymerase ribozyme fitness (log ratio)” value: -1.99 for the first, -3.63 for the second.

Compared with G42U A121C, G42U C49A U81G is lower in “polymerase ribozyme fitness (log ratio)” value: 0.464 for the first, -5.58 for the second.

First: G42U C49G U112A
Second: G42U C53G G77U U126C
The “polymerase ribozyme fitness (log ratio)” value of the first is higher: -0.357 for the first, -2.18 for the second.

Going from G42U C70U to G42U C70U U126G, the “polymerase ribozyme fitness (log ratio)” value falls from -2.26 to -5.19.

First: G42U C72A A74G U96C
Second: G42U C72G G128C
The “polymerase ribozyme fitness (log ratio)” value of the first is higher: -3.45 for the first, -4.55 for the second.

G42U C72U and G42U C73A are within 0.2 log units of each other in “polymerase ribozyme fitness (log ratio)” value: -1.64 for the first, -1.55 for the second.

First: G42U C73U
Second: G42U C88U C101G
The “polymerase ribozyme fitness (log ratio)” value of the first is higher: -1.51 for the first, -3.94 for the second.

Compared with G42U C94U U126A U129G, G42U G44A C56U G61C A68U C85U G110U U116C is lower in “polymerase ribozyme fitness (log ratio)” value: -5.24 for the first, -6.46 for the second.

Compared with G42U G44U C49A G69U U87G A119U G135A, G42U G52A A75G C101U is higher in “polymerase ribozyme fitness (log ratio)” value: -1.59 for the first, -0.635 for the second.

Compared with G42U G52U U54A A111C G122A, G42U G57U C82U is higher in “polymerase ribozyme fitness (log ratio)” value: -5.42 for the first, -1.58 for the second.

Compared with G42U G58C G63A C82G U87C, G42U G61A is higher in “polymerase ribozyme fitness (log ratio)” value: -5.43 for the first, -1.21 for the second.

G42U G61U C82U G127A U133A and G42U G61U C88G C101A G120C are within 0.2 log units of each other in “polymerase ribozyme fitness (log ratio)” value: -3.41 for the first, -3.56 for the second.

Going from G42U G61U C123A to G42U G71U, the “polymerase ribozyme fitness (log ratio)” value falls from -0.3 to -2.08.

Compared with G42U G93A, G42U G93U A118G is lower in “polymerase ribozyme fitness (log ratio)” value: -2.14 for the first, -2.35 for the second.

Compared with G42U G122A, G42U U78A C85U is lower in “polymerase ribozyme fitness (log ratio)” value: -1.66 for the first, -2.63 for the second.

First: G42U U78C
Second: G42U U78C C123G
The “polymerase ribozyme fitness (log ratio)” value of the first is lower: -1.45 for the first, 0.17 for the second.

Going from G42U U87C G128U U133A to G42U U112A, the “polymerase ribozyme fitness (log ratio)” value rises from -3.75 to -0.57.

G42U U130A and A43C A46G are within 0.2 log units of each other in “polymerase ribozyme fitness (log ratio)” value: -1.76 for the first, -1.62 for the second.

First: A43C A46U C101G C123U
Second: A43C A118U
The “polymerase ribozyme fitness (log ratio)” value of the first is lower: -4.18 for the first, -1.82 for the second.

Going from A43C C49A C94A C115A to A43C C53A C56A C62U, the “polymerase ribozyme fitness (log ratio)” value rises from -4.43 to -3.14.

Going from A43C C56A A66U U112A to A43C C56U C94A G117A, the “polymerase ribozyme fitness (log ratio)” value falls from -4.32 to -5.97.

First: A43C C62G
Second: A43C C72A U81C
The “polymerase ribozyme fitness (log ratio)” value of the first is lower: -5.4 for the first, -3.09 for the second.

Compared with A43C C72U A100U U130G, A43C C85U C115G is lower in “polymerase ribozyme fitness (log ratio)” value: -4.41 for the first, -4.93 for the second.

First: A43C C88U
Second: A43C C101U
The “polymerase ribozyme fitness (log ratio)” value of the first is higher: -2.23 for the first, -2.75 for the second.

Going from A43C C124A U125G to A43C G44U, the “polymerase ribozyme fitness (log ratio)” value falls from -0.534 to -2.14.

First: A43C G45A A50G G113U G120C
Second: A43C G47A C115U U116C
The “polymerase ribozyme fitness (log ratio)” value of the first is higher: -1.89 for the first, -3.25 for the second.

Compared with A43C G47U, A43C G48A C56U G63A G113U U125C U131A is lower in “polymerase ribozyme fitness (log ratio)” value: -3.64 for the first, -6.28 for the second.

First: A43C G48C
Second: A43C G48C G71A
The “polymerase ribozyme fitness (log ratio)” value of the first is higher: -2.99 for the first, -4.5 for the second.

Compared with A43C G48U C62A A66U C123A, A43C G51U C56U G58A C80A C89G C101A G122U C123A G127A is higher in “polymerase ribozyme fitness (log ratio)” value: -6.8 for the first, -6.31 for the second.

A43C G52U and A43C G60C U131G are within 0.2 log units of each other in “polymerase ribozyme fitness (log ratio)” value: -3.56 for the first, -3.6 for the second.

First: A43C G63A C114G C123U
Second: A43C G69A U112C G135A
The “polymerase ribozyme fitness (log ratio)” value of the first is lower: -6.77 for the first, -4.59 for the second.

Compared with A43C G69U G110A, A43C G77A G127C is lower in “polymerase ribozyme fitness (log ratio)” value: -1.54 for the first, -3.5 for the second.

First: A43C G77U C85G
Second: A43C G93U
The “polymerase ribozyme fitness (log ratio)” value of the first is lower: -4.12 for the first, -2.59 for the second.

A43C G113A and A43C G117A are within 0.2 log units of each other in “polymerase ribozyme fitness (log ratio)” value: -2.91 for the first, -3.01 for the second.

Going from A43C U55A C62U G93U U96G to A43C U78C C80A C89U, the “polymerase ribozyme fitness (log ratio)” value rises from -4.79 to -4.14.

A43C U78C C88U G93A and A43C U87A U106A are within 0.2 log units of each other in “polymerase ribozyme fitness (log ratio)” value: -2.62 for the first, -2.43 for the second.

Compared with A43C U87C C89A A91U U92G G93C U125G, A43C U87G G113C is higher in “polymerase ribozyme fitness (log ratio)” value: -4.91 for the first, -2.52 for the second.

Going from A43C U92G A111C C114A to A43C U125A, the “polymerase ribozyme fitness (log ratio)” value rises from -6.46 to -2.

Compared with A43C U131C, A43G A50G G60U A95G U132C is lower in “polymerase ribozyme fitness (log ratio)” value: -1.94 for the first, -3.96 for the second.

First: A43G A66G
Second: A43G C64G U87G G110A
The “polymerase ribozyme fitness (log ratio)” value of the first is higher: -4.35 for the first, -6.77 for the second.
